In publication PMC11365945:

T1: Sh1 (Glycine soja, UniProt I1MNH4 1-230+=TTT+231-511, T232A;internal_change)
T1 sequence: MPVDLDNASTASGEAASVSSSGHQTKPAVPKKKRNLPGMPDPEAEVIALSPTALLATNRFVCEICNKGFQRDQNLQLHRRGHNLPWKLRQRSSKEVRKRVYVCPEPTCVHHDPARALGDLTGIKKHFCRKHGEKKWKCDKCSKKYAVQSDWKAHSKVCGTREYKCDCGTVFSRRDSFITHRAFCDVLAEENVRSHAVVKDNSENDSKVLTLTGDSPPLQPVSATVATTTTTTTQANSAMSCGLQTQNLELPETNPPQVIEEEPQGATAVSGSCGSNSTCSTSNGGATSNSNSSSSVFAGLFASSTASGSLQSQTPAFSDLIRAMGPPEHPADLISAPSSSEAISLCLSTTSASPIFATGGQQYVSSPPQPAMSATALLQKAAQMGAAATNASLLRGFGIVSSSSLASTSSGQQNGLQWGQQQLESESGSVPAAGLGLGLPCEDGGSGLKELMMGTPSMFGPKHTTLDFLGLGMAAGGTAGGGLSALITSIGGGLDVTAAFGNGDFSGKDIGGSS

B1: SHAT1-5 promoter S2-12 (dsDNA)
DNA 1: AATATATAAAATTCTTGCTTTATCACAAGTCCATTTTGAGGTATTTTTTATTTCTTCGTG
DNA 2: CACGAAGAAATAAAAAATACCTCAAAATGGACTTGTGATAAAGCAAGAATTTTATATATT
B2: SHAT1-5 promoter S2-5 (dsDNA)
DNA 1: TCATGTTATTTTTAAATTATGAAACAAAATAATATATAAAATTCTTGCTTTATCACAAGT
DNA 2: ACTTGTGATAAAGCAAGAATTTTATATATTATTTTGTTTCATAATTTAAAAATAACATGA
B3: SHAT1-5 promoter S2-6 (dsDNA)
DNA 1: CCATTTTGAGGTATTTTTTATTTCTTCGTGTGAAATCTTGTACATTCTTTGGAGATGCTG
DNA 2: CAGCATCTCCAAAGAATGTACAAGATTTCACACGAAGAAATAAAAAATACCTCAAAATGG
B4: SHAT1-5 promoter S2-11 (dsDNA)
DNA 1: TTTTAAAATAAAAAAAAAAACAAATAGATATCATGTTATTTTTAAATTATGAAACAAAAT
DNA 2: ATTTTGTTTCATAATTTAAAAATAACATGATATCTATTTGTTTTTTTTTTTATTTTAAAA

Molecular target: T1, Sh1
Test: EMSA

Binding result, binds:
B1
B2
B3
B4
